Broadly, the stoichiometry N is a count of units in the complex or per binding partner. One may read the Kd as the concentration at which binding is half-saturated. Low readings indicate tighter binding, high ones weaker binding.

The target in experiment [1] is actin (UniProt P68135). Briefly: SAXS.
The target of experiment [2] is VopL fragment 200-484 (1W-VCD) (Vibrio parahaemolyticus) (UniProt Q87GE5). Briefly: SEC-MALS. A general note: Size exclusion chromatography separates by hydrodynamic size, large species first.
Experiment [3] addresses actin (UniProt P68135). Briefly: SEC-MALS.
The target of experiment [4] is 3W-VCD-AviTag bound to quantum dots (Vibrio parahaemolyticus) (UniProt Q87GE5). Description: TIRF microscopy.
The target in experiment [5] is actin (UniProt P68135). Briefly: ITC. In general terms: ITC needs no label: the signal is the heat of the interaction.

In the case of “VopL fragment 200-484 (1W-VCD) (from UniProt Q87GE5 200-484) (domain or fragment)”, the stoichiometry N (actin molecules per 1W-VCD dimer) with actin [1] and in the experiment with actin [3] was 2 each time. The substance further came in with a stoichiometry N in experiment [2] of 2.

Turning to “actin (from UniProt P68135 1-377) (natural protein)”, the percent of filaments associated with Qdots through the pointed end in experiment [4] was 10.9%. In turn, “third W domain of VopL (domain or fragment)” showed a Kd with actin [5] of 410 nM. This counts as sub-micromolar.

(Values after PMC3173040.)
